Source: US20170128546A1

Tests used:
[1] = molecular target: lysozyme variant 2-3-7 (human)
[2] = molecular target: wild type human lysozyme (human) (UniProt P61626)
[3] = molecular target: lysozyme variant 2-3-7 (human); remark: listed apart in the source

IC50 - Mucin (µg/mL): concentration of polyanion that inhibits lytic activity of the enzyme on Micrococcus luteus by 50% [1]: 73 µg/mL
IC50 - Mucin (µg/mL): concentration of polyanion that inhibits lytic activity of the enzyme on Micrococcus luteus by 50% [2]: 11 µg/mL
fold increase in IC50 for mucin against WT-LYZ [3]: 6.91 fold
Substance: mucin
